Test results from PMC6259754.
“And” between values parts separate entries of the source, which are not always exact repeats. Equal values may be shown once.

Assays:
[1] = molecular target: Phaseolus acutifolius agglutinin (lectin from white tepary bean, Phaseolus acutifolius variety latifolius) (Phaseolus acutifolius)
[2] = molecular target: Phaseolus acutifolius agglutinin (lectin from white tepary bean, Phaseolus acutifolius variety latifolius) (Phaseolus acutifolius); test: SEC; TSK 3000 SW HPLC column in PBS, 0.5 mL/min, 0.1 mg pure lectin; data not shown
[3] = molecular target: Phaseolus acutifolius agglutinin (lectin from white tepary bean, Phaseolus acutifolius variety latifolius) (Phaseolus acutifolius); test: SEC
[4] = molecular target: Phaseolus acutifolius agglutinin (lectin from white tepary bean, Phaseolus acutifolius variety latifolius) (Phaseolus acutifolius); test: native gel or EMSA

| Molecule | Inhibitory concentration (lowest concentration giving complete inhibition) of hemagglutination of trypsinized human A erythrocytes by PAA [1] [mg/mL] | Inhibitory concentration (lowest concentration giving complete inhibition) of hemagglutination of trypsinized human O erythrocytes by PAA [1] [mg/mL] | stoichiometry N [2] | stoichiometry N [3] | stoichiometry N [4] |
| --- | --- | --- | --- | --- | --- |
| Ovoalbumin (from UniProt P01012 1-386) (natural protein) | 1.3 | 1.3 |  |  |  |
| Phaseolus acutifolius agglutinin (lectin from white tepary bean, Phaseolus acutifolius variety latifolius) (natural protein) |  |  | 2 | 4 and 2 | > 4 |
| Porcine thyroglobulin (from UniProt F1RRV3 20-2692) (natural protein) | 0.0048 | 0.0048 |  |  |  |
| Recombinant soluble human β-1,6-N-acetylglucosaminyltransferase V (from UniProt Q09328 1-741) (enzyme) | 0.0273 | 0.0017 |  |  |  |
| Bovine fetuin (natural protein, glycoprotein with N-linked biantennary and triantennary complex oligosaccharides (sites not given)) IPLDPVAGYKEPACDDPDTEQAALAAVDYINKHLPRGYKHTLNQIDSVKVWPRRPTGEVYDIEIDTLETTCHVLDPTPLANCSVRQQTQHAVEGDCDIHVLKQDGQFSVLFTKCDSSPDSAEDVRKLCPDCPLLAPLNDSRVVHAVEVALATFNAESNGSYLQLVEISRAQFVPLPVSVSVEFAVAATDCIAKEVVDPTKCNLLAEKQYGFCKGSVIQKALGGEDVRVTCTLFQTQPVIPQPQPDGAEAEAPSAVPDAAGPTPSAAGPPVASVVVGPSVVAVPLPLHRAHYDLRHTFSGVASVESSSGEAFHVGKTPIVGQPSIPGGPVRLCPGRIRYFKI | 0.156 | 0.0781 |  |  |  |
| Bovine fibrinogen (complex) chain 1: GPRLVERQQSACKETGWPFCSDEDWNTKCPSGCRMKGLIDEVDQDFTSRINKLRDSLFNYQKNSKDSNTLTKNIVELMRGDFAKANNNDNTFKQISEDLRSRIEILRRKVIEQVQRIKVLQKNVRDQLVDMKRLEVDIDIKIRSCKGSCSRALEHKVDLEDYKNQQKQLEQVIAINLLPSRDIQYLPLIKMSTITGPVPREFKSQLQEAPLEWKALLEMQQTKMVLETFGGDGHARGDSVSQGTGLAPGSPRKPGTSSIGNVNPGSYGPGSSGTWNPGRPEPGSAGTWNPGRPEPGSAGTWNPGRPEPGSAGTWNPGRPEPGSAGTWNPGRPEPGSAGTWNTGSSGSSSFRPDSSGHGNIRPSSPDWGTFREEGSVSSGTKQEFHTGKLVTTKGDKELLIDNEKVTSGHTTTTRRSCSKVITKTVTNADGRTETTKEVVKSEDGSDCGDADFDWHHTFPSRGNLDDFFHRDKDDFFTRSSHEFDGRTGLAPEFAALGESGSSSSKTSTHSKQFVSSSTTVNRGGSAIESKHFKMEDEAESLEDLGFKGAHGTQKGHTKARPARGIHTSPLGEPSLTP chain 2: GHRPYDKKKEEAPSLRPVPPPISGGGYRARPATATVGQKKVERKPPDADGCLHADPDLGVLCPTGCKLQDTLVRQERPIRKSIEDLRNTVDSVSRTSSSTFQYITLLKNMWKGRQNQVQDNENVVNEYSSHLEKHQLYIDETVKNNIPTKLRVLRSILENLRSKIQKLESDVSTQMEYCRTPCTVTCNIPVVSGKECEKIIRNEGETSEMYLIQPEDSSKPYRVYCDMKTEKGGWTVIQNRQDGSVDFGRKWDPYKQGFGNIATNAEGKKYCGVPGEYWLGNDRISQLTNMGPTKLLIEMEDWKGDKVTALYEGFTVQNEANKYQLSVSKYKGTAGNALIEGASQLVGENRTMTIHNSMFFSTYDRDNDGWKTTDPRKQCSKEDGGGWWYNRCHAANPNGRYYWGGAYTWDMAKHGTDDGVVWMNWQGSWYSMKKMSMKIRPYFPEQ chain 3: YVATRDNCCILDERFGSYCPTTCGIADFLNNYQTSVDKDLRTLEGILYQVENKTSEARELVKAIQISYNPDQPSKPNNIESATKNSKSMMEEIMKYETLISTHESTIRFLQEVYNSNSQKIVNLRDKVVQLEANCQEPCQDTVKIHDVTGRDCQDVANKGAKESGLYFIRPLKAKQFLVYCEIDGSGNGWTVFQKRLDGSLDFKKNWIQYKEGFGHLSPTGTGNTEFWLGNEKIHLISTQSSIPYVLRIQLEDWNGRTSTADYASFKVTGENDKYRLTYAYFIGGDAGDAFDGYDFGDDSSDKFFTSHNGMQFSTWDSDNDKYDGNCAEQVGIGWWMNKCHAGHLNGVYYQGGTYSKTSTPNGYDNGIIWATWKSRWYSMKKTTMKIIPLNRLAIGEGQQHQLGGAKQVGVEHHVEIEYD | 0.0391 | 0.0098 |  |  |  |
